What was measured:
[1] = target: SIRPa on human monocytes (human) (UniProt P78324); assay: flow cytometry on human monocytes v1/v1, PE anti-human Fc; MFI [B, panel B table]
[2] = target: SIRPa on human monocytes (human) (UniProt P78324); assay: flow cytometry on human monocytes v1/v1, PE anti-human Fc; percent of stained monocytes [B, panel A table]

EC50 [1]: 0.59 µg/mL
EC50 [2]: 0.242 µg/mL
B1: HALA (antibody, human IgG4 S228P, kappa, V domains shown)
VH: EVQLVQSGAEVKKPGESLRISCKASGYTFTSYWVHWVRQMPGKGLEWIGNIDPSDSDTHYNQKFKDHVTLSVDKSISTAYLQLSSLKASDTAMYYCVRGGTGTMAWFAYWGQGTLVTVSS
VL: DVVMTQSPLSLPVTLGQPASISCRSSQSLVHSYGNTYLYWYQQRPGQSPRLLIYRVSNRFSGVPDRFSGSGSGTDFTLKISRVEAEDVGVYFCFQGTHVPYTFGGGTKVEIKR

From US20210179728A1
